Data taken from patent US20220411483A1 (Chugai, published 2022).
Numbering of substitutions follows the chain as printed.

T1: human FcγRIIa R type extracellular domain with C-terminal His tag (human, UniProt P12318 34-217)
T1 construct: extracellular domain; also called FcgRIIaR
T1 sequence (looked up): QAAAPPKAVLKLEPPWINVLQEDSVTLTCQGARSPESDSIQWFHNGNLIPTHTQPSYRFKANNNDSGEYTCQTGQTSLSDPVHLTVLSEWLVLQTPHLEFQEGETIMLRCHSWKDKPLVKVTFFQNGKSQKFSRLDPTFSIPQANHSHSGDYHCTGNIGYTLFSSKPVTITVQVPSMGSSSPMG

T2: human FcγRIIb extracellular domain with C-terminal His tag (human, UniProt P31994 43-217)
T2 construct: extracellular domain; also called FcgRIIb
T2 sequence (looked up): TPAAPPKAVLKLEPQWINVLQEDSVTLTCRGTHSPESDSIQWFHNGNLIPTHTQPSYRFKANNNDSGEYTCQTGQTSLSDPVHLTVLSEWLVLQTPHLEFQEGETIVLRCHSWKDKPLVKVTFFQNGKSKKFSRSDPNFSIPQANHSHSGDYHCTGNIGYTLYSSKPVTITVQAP

T3: FcgRIIb (human, UniProt P31994 43-217)
T3 construct: extracellular domain; also called FcγRIIb
T3 sequence (looked up): T2 sequence (looked up)

T4: human FcγRIIa H type extracellular domain with C-terminal His tag (human, UniProt P12318 34-217)
T4 construct: extracellular domain; also called FcgRIIaH
T4 sequence (looked up): T1 sequence (looked up) with R134H

B1: IL6R-P774/IL6R-L (antibody, human IgG1, kappa)
heavy: QVQLQESGPGLVKPSETLSLTCAVSGHSISHDHAWSWVRQPPGEGLEWIGFISYSGITNYNPSLQGRVTISRDNSKNTLYLQMNSLRAEDTAVYYCARSLARTTAMDYWGEGTLVTVSSASTKGPSVFPLAPSSKSTSGGTAALGCLVKDYFPEPVTVSWNSGALTSGVHTFPAVLQSSGLYSLSSVVTVPSSSLGTQTYICNVNHKPSNTKVDKKVEPKSCDKTHTCPPCPAPELLGGDSVFLFPPKPKDTLMISRTPEVTCVVVDVAEEDGEVKFNWYVDGVEVHNAKTKPREEQYNSTYRVVSVLTVLHQDWLNGKEYKCEVSNKALPAPIEKTISKAKGQPREPQVYTLPPSRDELTKNQVSLTCLVKGFYPSDIAVEWESNGQPENNYKTTPPVLDSDGSFFLYSKLTVDKSRWQQGNVFSCSVMHEALHNHYTQKSLSLSP
light: not shown
B2: IL6R-P768/IL6R-L (antibody, human IgG1, kappa)
heavy: B1 heavy with V266I, E270H, E324K, A329G, A332S, P333S
light: not shown
B3: IL6R-P771/IL6R-L (antibody, human IgG1, kappa)
heavy: B1 heavy with V266I, A269S, E270H, E324A
light: not shown
B4: IL6R-P770/IL6R-L (antibody, human IgG1, kappa)
heavy: B1 heavy with V266I, A269S, E270H, E324K, A329G, A332S, P333S
light: not shown
B5: IL6R-P784/IL6R-L (antibody, human IgG1, kappa)
heavy: B1 heavy with E235D, G239D, A269S, E270H, G273P, E324K, A329G, A332S, P333S
light: not shown
B6: IL6R-P781/IL6R-L (antibody, human IgG1, kappa)
heavy: B1 heavy with A269S, E270H, G273P, S300A, E324K, A329G, A332S, P333S
light: not shown
B7: IL6R-P778/IL6R-L (antibody, human IgG1, kappa)
heavy: B1 heavy with E235D, V266I
light: not shown
B8: IL6R-P780/IL6R-L (antibody, human IgG1, kappa)
heavy: B1 heavy with V266I
light: not shown
B9: IL6R-P783/IL6R-L (antibody, human IgG1, kappa)
heavy: B1 heavy with G239D, A269S, E270H, G273P, E324K, A329G, A332S, P333S
light: not shown
B10: IL6R-P775/IL6R-L (antibody, human IgG1, kappa)
heavy: B1 heavy with A269S, E270H, E324A
light: not shown
B11: IL6R-P769/IL6R-L (antibody, human IgG1, kappa)
heavy: B1 heavy with V266I, A269S, E270H, E324K
light: not shown
B12: IL6R-P773/IL6R-L (antibody, human IgG1, kappa)
heavy: B1 heavy with E324A
light: not shown
B13: IL6R-P772/IL6R-L (antibody, human IgG1, kappa)
heavy: B1 heavy with V266I, A269S, E270H
light: not shown
B14: IL6R-P767/IL6R-L (antibody, human IgG1, kappa)
heavy: B1 heavy with V266I, A269S, E324K, A329G, A332S, P333S
light: not shown
B15: IL6R-P782/IL6R-L (antibody, human IgG1, kappa)
heavy: B1 heavy with E235D, A269S, E270H, G273P, E324K, A329G, A332S, P333S
light: not shown
B16: IL6R-P779/IL6R-L (antibody, human IgG1, kappa)
heavy: B1 heavy with V266I, E324A
light: not shown
B17: IL6R-P777/IL6R-L (antibody, human IgG1, kappa)
heavy: B1 heavy with E235D, V266I, E324A
light: not shown
B18: IL6R-P776/IL6R-L (antibody, human IgG1, kappa)
heavy: B1 heavy with A269S, E270H
light: not shown
B19: IL6R-P637/IL6R-L (antibody, human IgG1, kappa)
heavy: B1 heavy with E235D, V266I, A269Y, E324K
light: not shown

target: T5, human FcγRIa extracellular domain with C-terminal His tag (human, UniProt P12314 16-292); assay: SPR, antibody captured, FcgR analyte
T5 construct: Whole entry named; also called FcgRIa
T5 sequence (P12314 16-292): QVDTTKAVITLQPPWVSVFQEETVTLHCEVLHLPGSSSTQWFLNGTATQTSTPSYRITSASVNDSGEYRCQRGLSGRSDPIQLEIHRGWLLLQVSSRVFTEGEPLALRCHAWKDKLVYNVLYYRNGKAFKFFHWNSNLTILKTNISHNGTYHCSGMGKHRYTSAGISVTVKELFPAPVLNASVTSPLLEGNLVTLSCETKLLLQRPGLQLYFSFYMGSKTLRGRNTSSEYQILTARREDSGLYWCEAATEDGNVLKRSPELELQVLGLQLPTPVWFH

| Kd | Binder |
| --- | --- |
| 1.1 nM | B1 |
| 3.3 nM | B2 |
| 14 nM | B3 |
| 15 nM | B4 |
| 88 nM | B5 |
| 17 nM | B6 |
| 0.96 nM | B7 |
| 2.1 nM | B8 |
| 160 nM | B9 |
| 8.6 nM | B10 |
| 12 nM | B11 |
| 2.1 nM | B12 |
| 9.1 nM | B13 |
| 5.4 nM | B14 |
| 30 nM | B15 |
| 3.4 nM | B16 |
| 1.6 nM | B17 |
| 5.2 nM | B18 |

target: T1, human FcγRIIa R type extracellular …; assay: SPR, antibody captured, FcgR analyte

| Kd | Binder |
| --- | --- |
| 2000 nM | B1 |
| 2800 nM | B2 |
| 4300 nM | B3 |
| 3400 nM | B4 |
| 21000 nM | B5 |
| 11000 nM | B6 |
| 1300 nM | B7 |
| 1700 nM | B8 |
| 39000 nM | B9 |
| 5400 nM | B10 |
| 2900 nM | B11 |
| 2700 nM | B12 |
| 3100 nM | B13 |
| 2800 nM | B14 |
| 37000 nM | B15 |
| 2200 nM | B16 |
| 1900 nM | B17 |
| 4000 nM | B18 |

target: T2, human FcγRIIb extracellular domain with …; assay: SPR, antibody captured, FcgR analyte

| Kd | Binder |
| --- | --- |
| 88 nM | B1 |
| 170 nM | B2 |
| 140 nM | B3 |
| 170 nM | B4 |
| 2200 nM | B5 |
| 9000 nM | B6 |
| 25 nM | B7 |
| 34 nM | B8 |
| 3800 nM | B9 |
| 400 nM | B10 |
| 74 nM | B11 |
| 140 nM | B12 |
| 97 nM | B13 |
| 120 nM | B14 |
| 3600 nM | B15 |
| 50 nM | B16 |
| 52 nM | B17 |
| 280 nM | B18 |

target: T3, FcgRIIb; assay: SPR, amount bound per captured antibody

| Relative FcgRIIb-binding Activity | Binder |
| --- | --- |
| 55.5 IL6R-G1d/IL6R-L=100 | B19 |

target: T5, human FcγRIa extracellular domain with …; assay: SPR, KD of IL6R-G1d/IL6R-L divided by KD of variant

| Relative FcgRIa-binding Activity | Binder |
| --- | --- |
| 0.291 | B1 |
| 0.097 | B2 |
| 0.023 | B3 |
| 0.021 | B4 |
| 0.004 | B5 |
| 0.019 | B6 |
| 0.333 | B7 |
| 0.152 | B8 |
| 0.002 | B9 |
| 0.037 | B10 |
| 0.027 | B11 |
| 0.152 | B12 |
| 0.035 | B13 |
| 0.059 | B14 |
| 0.011 | B15 |
| 0.094 | B16 |
| 0.2 | B17 |
| 0.062 | B18 |

target: T1, human FcγRIIa R type extracellular …; assay: as above

| Relative FcgRIIaR-binding Activity | Binder |
| --- | --- |
| 0.55 | B1 |
| 0.39 | B2 |
| 0.26 | B3 |
| 0.32 | B4 |
| 0.05 | B5 |
| 0.1 | B6 |
| 0.85 | B7 |
| 0.65 | B8 |
| 0.03 | B9 |
| 0.2 | B10 |
| 0.38 | B11 |
| 0.41 | B12 |
| 0.35 | B13 |
| 0.39 | B14 |
| 0.03 | B15 |
| 0.5 | B16 |
| 0.58 | B17 |
| 0.28 | B18 |

target: T4, human FcγRIIa H type extracellular …; assay: as above

| Relative FcgRIIaH-binding Activity | Binder |
| --- | --- |
| 0.008 | B1 |
| 0.027 | B2 |
| 0.007 | B3 |
| 0.006 | B4 |
| 0.007 | B5 |
| 0.003 | B6 |
| 0.01 | B7 |
| 0.008 | B8 |
| 0.006 | B9 |
| 0.005 | B10 |
| 0.007 | B11 |
| 0.006 | B12 |
| 0.006 | B13 |
| 0.02 | B14 |
| 0.005 | B15 |
| 0.009 | B16 |
| 0.008 | B17 |
| 0.006 | B18 |

target: T2, human FcγRIIb extracellular domain with …; assay: as above

| Relative FcgRIIb-binding Activity | Binder |
| --- | --- |
| 23.9 | B1 |
| 12.4 | B2 |
| 15 | B3 |
| 12.4 | B4 |
| 1 | B5 |
| 0.2 | B6 |
| 84 | B7 |
| 61.8 | B8 |
| 0.6 | B9 |
| 5.3 | B10 |
| 28.4 | B11 |
| 15 | B12 |
| 21.6 | B13 |
| 17.5 | B14 |
| 0.6 | B15 |
| 42 | B16 |
| 40.4 | B17 |
| 7.5 | B18 |

target: T6, human FcγRIIIa V type extracellular domain with C-terminal His tag (human, UniProt P08637 17-208); assay: as above
T6 construct: extracellular domain; also called FcgRIIIaV
T6 sequence (P08637 17-208 F176V): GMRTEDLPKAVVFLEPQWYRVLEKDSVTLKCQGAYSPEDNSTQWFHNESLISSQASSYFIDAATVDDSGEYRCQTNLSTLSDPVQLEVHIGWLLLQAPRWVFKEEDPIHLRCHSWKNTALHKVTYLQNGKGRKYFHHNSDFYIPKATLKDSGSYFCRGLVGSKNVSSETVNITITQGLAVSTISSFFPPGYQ

| Relative FcgRIIIaV-binding Activity | Binder |
| --- | --- |
| 0.012 | B1 |
| 0.008 | B2 |
| 0.01 | B3 |
| 0.007 | B4 |
| 0.01 | B5 |
| 0.007 | B6 |
| 0.009 | B7 |
| 0.008 | B8 |
| 0.006 | B9 |
| 0.007 | B10 |
| 0.006 | B11 |
| 0.009 | B12 |
| 0.006 | B13 |
| 0.005 | B14 |
| 0.006 | B15 |
| 0.011 | B16 |
| 0.007 | B17 |
| 0.01 | B18 |
